Reference: US20190010205A1 (JCR PHARMACEUTICALS, published 2019)

T1: human prolactin receptor (hPRLR) expressed on mouse BaF3 cells (BaF3/hPRLR cells) (human, UniProt P16471 25-622)
T1 sequence (looked up): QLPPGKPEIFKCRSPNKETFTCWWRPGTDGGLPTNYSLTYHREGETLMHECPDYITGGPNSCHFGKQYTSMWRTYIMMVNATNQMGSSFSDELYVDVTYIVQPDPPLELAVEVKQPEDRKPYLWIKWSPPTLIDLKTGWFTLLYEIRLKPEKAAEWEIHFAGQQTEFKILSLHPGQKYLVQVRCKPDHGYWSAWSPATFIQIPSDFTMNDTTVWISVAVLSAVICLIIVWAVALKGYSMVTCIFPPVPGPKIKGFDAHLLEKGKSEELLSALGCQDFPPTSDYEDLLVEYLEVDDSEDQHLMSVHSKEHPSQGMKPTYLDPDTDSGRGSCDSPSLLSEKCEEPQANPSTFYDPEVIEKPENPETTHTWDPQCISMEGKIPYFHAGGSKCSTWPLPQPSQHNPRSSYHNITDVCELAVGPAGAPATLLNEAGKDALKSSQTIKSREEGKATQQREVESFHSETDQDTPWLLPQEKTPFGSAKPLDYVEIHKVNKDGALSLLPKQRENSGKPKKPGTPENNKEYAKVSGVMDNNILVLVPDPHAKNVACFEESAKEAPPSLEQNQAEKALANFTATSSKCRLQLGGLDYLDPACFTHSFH

T2: human GH receptor (hGHR) expressed on mouse BaF3 cells (BaF3/hGHR cells) (human, UniProt P10912 19-638)
T2 sequence (looked up): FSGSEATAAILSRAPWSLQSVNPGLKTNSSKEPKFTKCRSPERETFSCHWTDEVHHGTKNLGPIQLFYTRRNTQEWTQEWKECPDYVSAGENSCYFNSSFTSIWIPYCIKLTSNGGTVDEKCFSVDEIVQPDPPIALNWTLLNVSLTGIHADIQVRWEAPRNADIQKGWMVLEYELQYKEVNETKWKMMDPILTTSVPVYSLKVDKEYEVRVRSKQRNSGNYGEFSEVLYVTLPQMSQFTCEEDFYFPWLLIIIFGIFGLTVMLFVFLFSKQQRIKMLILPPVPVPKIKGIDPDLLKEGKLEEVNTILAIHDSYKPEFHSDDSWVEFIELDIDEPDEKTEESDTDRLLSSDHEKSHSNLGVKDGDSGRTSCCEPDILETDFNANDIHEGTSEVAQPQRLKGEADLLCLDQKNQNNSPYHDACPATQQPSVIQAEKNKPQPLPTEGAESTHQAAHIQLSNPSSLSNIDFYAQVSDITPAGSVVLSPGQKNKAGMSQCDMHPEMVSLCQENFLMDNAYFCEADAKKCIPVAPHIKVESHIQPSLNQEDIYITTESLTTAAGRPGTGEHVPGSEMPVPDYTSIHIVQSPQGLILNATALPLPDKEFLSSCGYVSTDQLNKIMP


What was measured:
Assay in all cases: cell-based or functional assay
[1] = biological target: HSA-[linker]-20K hGH (human)
[2] = biological target: HSA-20K hGH (human)
[3] = biological target: T1, human prolactin receptor (hPRLR) …
[4] = biological target: T2, human GH receptor (hGHR) expressed on …

IC50 of hGHBP against cell growth activity on BaF3/hGHR cells (by extrapolation) [1] [nM]	IC50 of hGHBP against cell growth activity on BaF3/hGHR cells (by extrapolation) [2] [nM]	EC50 (row printed as ED50), prolactin-like activity using BaF3/hPRLR cells [3] [nM]	EC50 (row printed as ED50), cell growth activity using BaF3/hGHR cells [4] [nM]	Binder
250 to 350	250 to 350	–	–	recombinant human growth hormone binding protein (rhGHBP, BioVision Inc.) (receptor, UniProt P10912 19-264, looked up) FSGSEATAAILSRAPWSLQSVNPGLKTNSSKEPKFTKCRSPERETFSCHWTDEVHHGTKNLGPIQLFYTRRNTQEWTQEWKECPDYVSAGENSCYFNSSFTSIWIPYCIKLTSNGGTVDEKCFSVDEIVQPDPPIALNWTLLNVSLTGIHADIQVRWEAPRNADIQKGWMVLEYELQYKEVNETKWKMMDPILTTSVPVYSLKVDKEYEVRVRSKQRNSGNYGEFSEVLYVTLPQMSQFTCEEDFY
–	–	0.27	0.00084	20K human growth hormone (ATGen Inc.) (ligand) FPTIPLSRLFDNAMLRAHRLHQLAFDTYQEFNPQTSLCFSESIPTPSNREETQQKSNLELLRISLLLIQSWLEPVQFLRSVFANSLVYGASDSNVYDLLKDLEEGIQTLMGRLEDGSPRTGQIFKQTYSKFDTNSHNDDALLKNYGLLYCFRKDMDKVETFLRIVQCRSVEGSCGF
